In patent publication US7183387 (Genentech, dated 2007):
Numbering of substitutions follows the chain as printed. Names and notes keep the numbering of the source. Blank lines part the entries; values can stand above or below the binder they belong to.

Key:
[1] = biological target: T1, human neonatal Fc receptor (FcRn), biotinylated (human, UniProt P55899 24-297; P61769 21-119, biotinylated (biotin-X-NHS)); assay: FcRn ELISA (E27 background by paragraph 363)
T1 construct: captured on streptavidin plates

[2] = biological target: T2, human FcγRIA α subunit extracellular domain-His6-GST fusion (human, UniProt P12314 16-292); assay: FcγRI ELISA, E27 background
T2 construct: extracellular domain; also called GST-FcγRIA; CD64; not shown: glutathione S transferase (GST)
T2 sequence (P12314 other isoform, or with tags, fused parts or gaps): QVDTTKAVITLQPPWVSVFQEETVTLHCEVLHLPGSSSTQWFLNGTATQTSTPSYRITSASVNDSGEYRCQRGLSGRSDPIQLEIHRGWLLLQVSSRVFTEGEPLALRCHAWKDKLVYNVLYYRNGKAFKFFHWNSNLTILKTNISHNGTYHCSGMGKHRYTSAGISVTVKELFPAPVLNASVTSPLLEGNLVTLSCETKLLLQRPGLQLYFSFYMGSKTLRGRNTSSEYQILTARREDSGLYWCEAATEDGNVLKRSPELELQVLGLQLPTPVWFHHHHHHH

[3] = biological target: T3, human FcγRIIB α subunit extracellular domain-His6-GST fusion (human, UniProt P31994 43-217); assay: immune complex ELISA, E27 background
T3 construct: extracellular domain; also called CD32; not shown: glutathione S transferase (GST)
T3 sequence: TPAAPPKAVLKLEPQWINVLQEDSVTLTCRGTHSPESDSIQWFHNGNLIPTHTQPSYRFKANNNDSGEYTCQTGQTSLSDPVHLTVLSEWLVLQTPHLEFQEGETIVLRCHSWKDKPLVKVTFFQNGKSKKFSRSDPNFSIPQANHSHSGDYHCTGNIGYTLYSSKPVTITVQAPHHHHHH

[4] = biological target: T4, human FcγRIIIA-Phe158 α subunit extracellular domain-His6-GST fusion (human, UniProt P08637 17-208); assay: immune complex ELISA, E27 background
T4 construct: extracellular domain; also called FcγRIIIA-F158; CD16; not shown: glutathione S transferase (GST)
T4 sequence (P08637 other isoform, or with tags, fused parts or gaps): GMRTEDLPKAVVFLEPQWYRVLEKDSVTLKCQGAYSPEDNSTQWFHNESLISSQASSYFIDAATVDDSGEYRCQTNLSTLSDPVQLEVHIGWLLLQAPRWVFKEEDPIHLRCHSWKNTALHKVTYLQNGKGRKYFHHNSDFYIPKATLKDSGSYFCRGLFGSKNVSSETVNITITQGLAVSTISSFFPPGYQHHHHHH

[5] = biological target: T5, human FcγRIIA-Arg131 α subunit extracellular domain-His6-GST fusion (human, UniProt P12318 34-217); assay: immune complex ELISA, E27 background
T5 construct: extracellular domain; also called FcγRIIA-R131; not shown: glutathione S transferase (GST)
T5 sequence: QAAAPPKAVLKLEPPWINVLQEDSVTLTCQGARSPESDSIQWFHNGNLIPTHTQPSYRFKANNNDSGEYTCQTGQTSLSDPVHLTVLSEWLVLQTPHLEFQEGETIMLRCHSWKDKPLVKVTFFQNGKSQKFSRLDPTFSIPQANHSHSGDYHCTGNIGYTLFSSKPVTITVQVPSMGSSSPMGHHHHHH

[6] = biological target: T1, human neonatal Fc receptor (FcRn), …; assay: FcRn ELISA, pH 6.0;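 as to ratio to native IgG1: Streptavidin-captured FcRn plates, IgG variants titrated 2 h at pH 6.0, peroxidase anti-human IgG read at 450 nm, variant over standard concentration at the standard curve mid-point absorbance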
Description: (§1) FcRn Binding ELISA: For measuring FcRn binding activity of IgG variants, ELISA plates were coated with 2 µg/ml streptavidin (Zymed, South San Francisco) in 50 mM carbonate buffer, pH 9.6, at 4° C. overnight and blocked with PBS-0.5% BSA, pH 7.2 at room temperature for one hour. Biotinylated FcRn (prepared using biotin-X-NHS from Research Organics, Cleveland, Ohio and used at 1–2 µg/ml) in PBS-0.5% BSA, 0.05% polysorbate 20, pH 7.2, was added to the plate and incubated for one hour. Two fold serial dilutions of IgG standard (1.6–100 ng/ml) or variants in PBS-0.5% BSA, 0.05% polysorbate 20, pH 6.0, were added to the plate and incubated for two hours. Bound IgG was detected using peroxidase labeled goat F(ab')_2 anti-human IgG F(ab')_2 in the above pH 6.0 buffer (Jackson ImmunoResearch, West Grove, Pa.) followed by 3,3',5,5'-tetramethyl benzidine (Kirgaard & Perry Laboratories) as the substrate. Plates were washed between steps with PBS-0.05% TWEEN 20® at either pH 7.2 or 6.0. Absorbance was read at 450 nm on a Vmax plate reader (Molecular Devices, Menlo Park, Calif.). Titration curves were fit with a four-parameter nonlinear regression curve-fitting program (KaleidaGraph, Synergy software, Reading, Pa.). Concentrations of IgG variants corresponding to the mid-point absorbance of the titration curve of the standard were calculated and then divided by the concentration of the standard corresponding to the mid-point absorbance of the standard titration curve.

[7] = biological target: T2, human FcγRIA α subunit extracellular …; assay: FcγRI ELISA and THP-1 cells, averaged (row shifted)
[8] = biological target: T1, human neonatal Fc receptor (FcRn), …; assay: FcRn ELISA, pH 6.0; remark: listed apart in the source;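 as to ratio to native IgG1: Streptavidin-captured FcRn plates, IgG variants titrated 2 h at pH 6.0, peroxidase anti-human IgG read at 450 nm, variant over standard concentration at the standard curve mid-point absorbance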
[9] = biological target: T3, human FcγRIIB α subunit extracellular …; assay: hexamer ELISA (row shifted)
[10] = biological target: T4, human FcγRIIIA-Phe158 α subunit …; assay: hexamer ELISA (row shifted)
[11] = biological target: T5, human FcγRIIA-Arg131 α subunit …; assay: hexamer ELISA (row shifted)
[12] = biological target: T6, human FcγRIIA-His131 α subunit extracellular domain-His6-GST fusion (human, UniProt P12318 34-217); assay: hexamer ELISA
T6 construct: extracellular domain; also called FcγRIIA-H131; not shown: glutathione S transferase (GST)
T6 sequence: T5 sequence with R134H

[13] = biological target: T3, human FcγRIIB α subunit extracellular …; assay: hexamer ELISA
[14] = biological target: T4, human FcγRIIIA-Phe158 α subunit …; assay: hexamer ELISA
[15] = biological target: T5, human FcγRIIA-Arg131 α subunit …; assay: hexamer ELISA
[16] = biological target: T2, human FcγRIA α subunit extracellular …; assay: FcγRI ELISA and THP-1 cells, averaged
[17] = biological target: T7, human FcγRIIA-R131 α subunit extracellular domain-6His-GST fusion (human, UniProt P12318 34-217); assay: ELISA, IgG:IgE hexamers on receptor-GST
T7 construct: also called FcγRIIA-Arg131; not shown: glutathione S-transferase (GST)
T7 sequence: T5 sequence

[18] = biological target: T8, human FcγRIIB α subunit extracellular domain-6His-GST fusion (human, UniProt P31994 43-217); assay: ELISA, IgG:IgE hexamers on receptor-GST
T8 construct: not shown: glutathione S-transferase (GST)
T8 sequence: T3 sequence

[19] = biological target: T9, human FcγRIIIA-F158 α subunit extracellular domain-6His-GST fusion (human, UniProt P08637 17-208); assay: ELISA, IgG:IgE hexamers on receptor-GST
T9 construct: also called FcγRIIIA-Phe158; not shown: glutathione S-transferase (GST)
T9 sequence (P08637 other isoform, or with tags, fused parts or gaps, form in doubt): as the sequence (P08637 other isoform, or with tags, fused parts or gaps) above

human FcRn, biotinylated = biological target: T10, human FcRn, biotinylated (human, UniProt P55899 24-297; P61769 21-119, biotinylated (biotin-X-NHS)); assay: ELISA, biotin-FcRn on streptavidin, pH 6.0
T10 construct: Captured on streptavidin plates; IgG added at pH 6.0; also called neonatal Fc receptor
Description: as §1

- fold better binding than native IgG1 [6]: 13 fold
B2: anti-IgE E27 IgG1 Thr307Ala/Glu380Ala/Asn434Ala (antibody)
heavy: EVQLVESGGGLVQPGGSLRLSCAVSGYSITSGYSWNWIRQAPGKGLEWVASIKYSGETKYNPSVKGRITISRDDSKNTFYLQMNSLRAEDTAVYYCARGSHYFGHWHFAVWGQGTLVTVSSASTKGPSVFPLAPSSKSTSGGTAALGCLVKDYFPEPVTVSWNSGALTSGVHTFPAVLQSSGLYSLSSVVTVPSSSLGTQTYICNVNHKPSNTKVDKKVEPKSCDKTHTCPPCPAPELLGGPSVFLFPPKPKDTLMISRTPEVTCVVVDVSHEDPEVKFNWYVDGVEVHNAKTKPREEQYNSTYRVVSVLAVLHQDWLNGKEYKCKVSNKALPAPIEKTISKAKGQPREPQVYTLPPSREEMTKNQVSLTCLVKGFYPSDIAVAWESNGQPENNYKTTPPVLDSDGSFFLYSKLTVDKSRWQQGNVFSCSVMHEALHAHYTQKSLSLSPGK
light: DIQLTQSPSSLSASVGDRVTITCRASKPVDGEGDSYLNWYQQKPGKAPKLLIYAASYLESGVPSRFSGSGSGTDFTLTISSLQPEDFATYYCQQSHEDPYTFGQGTKVEIKRTVAAPSVFIFPPSDEQLKSGTASVVCLLNNFYPREAKVQWKVDNALQSGNSQESVTEQDSKDSTYSLSSTLTLSKADYEKHKVYACEVTHQGLSSPVTKSFNRGEC

- ratio to native IgG1 [7]: 0.99 ratio
- ratio to native IgG1 [8]: < 0.1 ratio
- ratio to native IgG1 [9]: 0.91 ratio
- ratio to native IgG1 [10]: 0.91 ratio
- ratio to native IgG1 [11]: 0.93 ratio
B3: anti-IgE E27 IgG1 Tyr436Ala (antibody)
heavy: not shown
light: B2 light

- binding result [1]: binds
- percentage of the wild type [2]: 93%
- percentage of the wild type [3]: 106%
- percentage of the wild type [4]: 104%
- percentage of the wild type [5]: 113%
B5: anti-IgE E27 IgG1 E318A (antibody)
heavy: not shown
light: B2 light
notes: also called Glu318Ala

- fold better binding than native IgG1 [6]: > 8 fold
B6: anti-IgE E27 IgG1 Glu380Ala/Asn434Ala (antibody)
heavy: not shown
light: B2 light

- ratio to native IgG1 [7]: 0.96 ratio
- ratio to native IgG1 [8]: < 0.1 ratio
- ratio to native IgG1 [9]: 1.15 ratio
- ratio to native IgG1 [10]: 0.73 ratio
- ratio to native IgG1 [11]: 0.97 ratio
B8: anti-IgE E27 IgG1 Ser254Ala (antibody)
heavy: not shown
light: B2 light

- ratio to native IgG1 [7]: 1.25 ratio
- ratio to native IgG1 [8]: < 0.1 ratio
- ratio to native IgG1 [9]: 0.72 ratio
- ratio to native IgG1 [10]: 0.78 ratio
- ratio to native IgG1 [11]: 0.77 ratio
B9: anti-IgE E27 IgG1 His435Ala (antibody)
heavy: not shown
light: B2 light

- binding result [1]: binds
- percentage of the wild type [2]: 102%
- percentage of the wild type [3]: 83%
- percentage of the wild type [4]: 72%
- percentage of the wild type [5]: 94%
B11: anti-IgE E27 IgG1 K320A (antibody)
heavy: not shown
light: B2 light

Second part, the binder before the results:

B1: recombinant humanized anti-IgE E27 IgG1 (parent antibody) (antibody)
heavy: not shown
light: B2 light
notes: non-A allotype IgG1 Fc; E27 and all its variants were tested as monomers on FcRn and FcγRI and as hexamers with human IgE (3 E27 : 3 IgE) on FcγRIIA, FcγRIIB and FcγRIIIA; also called wt; E27 wildtype
- binding result [1]: binds
- percentage of the wild type [2]: 100%
- percentage of the wild type [3]: 100%
- percentage of the wild type [4]: 100%
- percentage of the wild type [5]: 100%

B4: anti-IgE E27 IgG1 Asp270Ala (antibody)
heavy: not shown
light: B2 light
notes: also called D270(283)A
- reduction in binding against native IgG1 [12]: 50%
- ratio to native IgG1 [8]: 1.05 ratio
- ratio to native IgG1 [13]: 0.1 ratio
- ratio to native IgG1 [14]: 0.14 ratio
- ratio to native IgG1 [15]: 0.06 ratio
- ratio to native IgG1 [16]: 0.76 ratio

B7: anti-IgE E27 IgG1 Asn434Ala (antibody)
heavy: not shown
light: B2 light
- ratio to native IgG1 [8]: 3.46 ratio
- fold better binding than native IgG1 [6]: 3.5 fold
- ratio to native IgG1 [13]: 0.97 ratio
- ratio to native IgG1 [14]: 0.77 ratio
- ratio to native IgG1 [15]: 0.96 ratio
- ratio to native IgG1 [16]: 1 ratio

B10: E27 IgG1 variant E380(405)A/N434(465)A/T307(326)A (antibody)
heavy: B2 heavy
light: B2 light
notes: also called IG2 270
- ratio to native IgG1 [17]: 0.99
- ratio to native IgG1 [18]: 0.99
- ratio to native IgG1 [19]: 0.96
- ratio to native IgG1 (human FcRn, biotinylated): 11.8

B12: anti-IgE E27 IgG1 Glu380Ala (antibody)
heavy: not shown
light: B2 light
- ratio to native IgG1 [8]: 2.19 ratio
- fold better binding than native IgG1 [6]: 2 fold
- ratio to native IgG1 [13]: 1.07 ratio
- ratio to native IgG1 [14]: 0.92 ratio
- ratio to native IgG1 [15]: 1.18 ratio
- ratio to native IgG1 [16]: 1.04 ratio

B13: E27 IgG1 variant H434(465)A/K288(305)A (antibody)
heavy: not shown
light: B2 light
notes: also called IG2 272; Lys288Ala/Asn434Ala
- ratio to native IgG1 [17]: 0.94
- ratio to native IgG1 [18]: 0.96
- ratio to native IgG1 [19]: 0.88
- ratio to native IgG1 (human FcRn, biotinylated): 2.9
